Reference: US11584938B2, “Plant EPSPS mutant containing L195P and S247G mutations and encoding gene and use thereof” (GEVOTO LLC, priority 2017, dated 2023)
Positions count from the first letter of the chain named.

B1: R5: rice EPSPS mutant, SEQ ID NO: 38, mutations S267(247)G and P116(101)S (protein)
chain: MASNAAAAAAKAEEIVLQPIREISGAVQLPGSKSLSNRILLLSALSEGTTVVDNLLNSEDVHYMLEALKALGLSVEADKVAKRAVVVGCGGKFPVEKDAKEEVQLFLGNAGTAMRSLTAAVTAAGGNATYVLDGVPRMRERPIGDLVVGLKQLGADVDCFLGTECPPVRVKGIGGLPGGKVKLSGSISSQYLSALLMAAPLALGDVEIEIIDKLISIPYVEMTLRLMERFGVKAEHSDSWDRFYIKGGQKYKSPGNAYVEGDASSAGYFLAGAAITGGTVTVQGCGTTSLQGDVKFAEVLEMMGAKVTWTDTSVTVTGPPREPYGKKHLKAVDVNMNKMPDVAMTLAVVALFADGPTAIRDVASWRVKETERMVAIRTELTKLGASVEEGPDYCIITPPEKLNITAIDTYDDHRMAMAFSLAACADVPVTIRDPGCTRKTFPNYFDVLSTFVRN
B2: R6: rice EPSPS mutant, SEQ ID NO: 40, mutations S267(247)G, L214(195)P and P116(101)S (protein)
chain: B1 chain with L214P

System: double knockout E. coli (EPSPS defective E. coli, EDCE)
Test: growth of EPSPS defective E. coli transformed by the EPSPS gene in M9 culture media containing different glyphosate concentrations
Type: cell-based, E. coli DH5α
Details: for EPSPS enzyme activity: concluded from growth of defective E. coli at 0 mM glyphosate
Excerpt: A method for detecting the glyphosate resistance of the soybean EPSPS mutant G1 provided in Example 1 and the soybean EPSPS mutant G3 provided in Example 2 is as follows:
according to the sequence of the nucleic acid molecule provided in the example, synthesizing the encoding gene that encodes the soybean EPSPS mutant G1 or G3 using a chemical synthesis method, introducing enzyme sites (Pac1 and Sbf1) at two ends thereof, connecting to an expression vector (for example, a pADV5 vector, the structure of which is as shown in FIG. 15) that has undergone the same restriction enzyme digestion treatment under the action of ligase after restriction enzyme digestion, then transforming double knockout E. coli, picking positive colonies after verification, inoculating the positive colonies to M9 culture media containing different glyphosate concentrations for growth, and observing the growth situation of the E. coli.
The wild-type soybean EPSPS (with an amino acid sequence represented by SEQ ID NO: 2 and an encoding gene sequence represented by SEQ ID NO: 1) and the soybean EPSPS mutant G2 (with an amino acid sequence represented by SEQ ID NO: 6, and a corresponding encoding gene sequence represented by SEQ ID NO: 5) merely containing the mutation P114(101)S were taken as controls.
In the above, the M9 basal culture medium can be prepared by the following method:
5×M9 salt solution: 6.78 g of Na2HPO4, 3.0 g of KH2PO4, 0.5 g of NaCl, and 1.0 g of NH4Cl were weighed, added with ddH2O to 200 ml, and subjected to high-temperature and high-pressure sterilization treatment;
20% glucose: 20 g of glucose was weighed, added with 80 ml of ddH2O for dissolving, diluted to 100 ml, and subjected to filtration and sterilization treatment;
1.0 M MgSO4: 24.6 g of MgSO4-7H2O was weighed, dissolved with 80 ml of ddH2O, diluted to 100 ml, and subjected to sterilization treatment;
1.0 M CaCl2: 11.1 g of CaCl2 was weighed, dissolved with 80 ml of ddH2O, diluted to 100 ml, and subjected to sterilization treatment; and
1000 ml of the M9 basal culture media were prepared by adding ddH2O to 200 ml of 5×M9 salt solution, 20 ml of 20% glucose, 2 ml of 1.0 M MgSO4 and 0.1 ml of 1.0 M CaCl2 to make up to 1000 ml.
In the above, the E. coli used was double knockout E. coli, namely, EPSPS defective E. coli (E. coli DH5α with EPSPS gene and C-P Lyase gene being knocked out, named as EDCE, wherein for a preparation method thereof, reference can be made to a Chinese invention patent with the filing number CN2016103256926).
The glyphosate resistance of the soybean EPSPS mutant G4 provided in Example 3 and the soybean EPSPS mutant G5 provided in Example 4 was verified with reference to the detection method in Experiment Example 1.
The wild-type wheat EPSPS (with an amino acid sequence represented by SEQ ID NO: 14, and a corresponding encoding gene sequence represented by SEQ ID NO: 13) and the wheat EPSPS mutant T2 (with an amino acid sequence represented by SEQ ID NO: 18, and a corresponding encoding gene sequence represented by SEQ ID NO: 17) merely containing the mutation P118(101)S were taken as controls to verify the glyphosate resistance of the wheat EPSPS mutants T1 and T3 provided in Example 5 and Example 6, and reference can be made to Experiment Example 1 for the method.
A method for verifying the glyphosate resistance of the wheat EPSPS mutants T4, T5, and T6 provided in Examples 7-9 is the same as that in Experiment Example 3.
The wild-type rice EPSPS R0 (with an amino acid sequence represented by SEQ ID NO: 28, and a corresponding encoding gene sequence represented by SEQ ID NO: 27) and the rice EPSPS mutant R2 (with an amino acid sequence represented by SEQ ID NO: 32, and a corresponding encoding gene sequence represented by SEQ ID NO: 31) merely containing the mutation P116(101)S were taken as controls to verify the glyphosate resistance of the rice EPSPS mutants R1 and R3 provided in Examples 10 and 11, and reference can be made to Experiment Example 1 for the method. […]

[1] = culture media containing 0 mM glyphosate
[2] = culture media containing 20 mM glyphosate

| Molecule | EPSPS enzyme activity | growth of the E. coli transformed by the EPSPS [1] | growth of the E. coli transformed by the EPSPS [2] | growth of the transformed E. coli compared with E. coli transformed by the control EPSPS named in the value [2] |
| --- | --- | --- | --- | --- |
| B1 | normal EPSPS enzyme activity | could grow | could grow | obviously superior to that of the E. coli transformed by R2 |
| B2 | normal EPSPS enzyme activity | could grow | could grow | superior to that of the E. coli transformed by R2 |
